This is an account of results in publication doi:10.1101/249060 (bioRxiv, 2018).

B1: PafE-PafE linear dimer (PafE_(1-155)-PafE_(1-174)) (other)
chain: MVIGLSTGSDDDDVEVIGGVDPRLIAVQENDSDESSLTDLVEQPAKVMRIGTMIKQLLEEVRAAPLDEASRNRLRDIHATSIRELEDGLAPELREELDRLTLPFNEDAVPSDAELRIAQAQLVGWLEGLFHGIQTALFAQQMAARAQLQQMRQGAGSGNSMVIGLSTGSDDDDVEVIGGVDPRLIAVQENDSDESSLTDLVEQPAKVMRIGTMIKQLLEEVRAAPLDEASRNRLRDIHATSIRELEDGLAPELREELDRLTLPFNEDAVPSDAELRIAQAQLVGWLEGLFHGIQTALFAQQMAARAQLQQMRQGALPPGVGKSGQHGHGTGQYL
B2: His6-PafE, wild type, purified alone (natural protein)
chain: MVIGLSTGSDDDDVEVIGGVDPRLIAVQENDSDESSLTDLVEQPAKVMRIGTMIKQLLEEVRAAPLDEASRNRLRDIHATSIRELEDGLAPELREELDRLTLPFNEDAVPSDAELRIAQAQLVGWLEGLFHGIQTALFAQQMAARAQLQQMRQGALPPGVGKSGQHGHGTGQYL
B3: PafE_(F138E) (natural protein)
chain: MVIGLSTGSDDDDVEVIGGVDPRLIAVQENDSDESSLTDLVEQPAKVMRIGTMIKQLLEEVRAAPLDEASRNRLRDIHATSIRELEDGLAPELREELDRLTLPFNEDAVPSDAELRIAQAQLVGWLEGLFHGIQTALEAQQMAARAQLQQMRQGALPPGVGKSGQHGHGTGQYL
B4: PafE_(P65G) (natural protein)
chain: MVIGLSTGSDDDDVEVIGGVDPRLIAVQENDSDESSLTDLVEQPAKVMRIGTMIKQLLEEVRAAGLDEASRNRLRDIHATSIRELEDGLAPELREELDRLTLPFNEDAVPSDAELRIAQAQLVGWLEGLFHGIQTALFAQQMAARAQLQQMRQGALPPGVGKSGQHGHGTGQYL

This data set concerns the molecule itself. As to the kind of experiment: SEC. (In general: Size exclusion chromatography separates by hydrodynamic size, large species first.)
For B1, the binding result is listed as “binds”.

Consider B2, for which the binding result is on record as “binds”.

As to B3, the binding result is “binds”.

For the protein B4, the binding result is recorded as “binds”.
